Experimental data from PMC10054023, “Fabrication of Rapid Electrical Pulse-Based Biosensor Consisting of Truncated DNA Aptamer for Zika Virus Envelope Protein Detection in Clinical Samples”.

How the values were obtained:
[1] = target: T1, Zika virus envelope protein (Zika virus, UniProt A0A024B7W1 291-694); test: bead-based fluorescence binding assay; protein on magnetic beads; Bead assay: room temperature, 1 h, envelope protein 0.15 mg/mL on magnetic beads, aptamer 3 nM-1 uM, DIW wash; binding buffer not stated (folding predicted at 140 mM Na+, 5 mM Mg2+). Sensor: ACEF 10 min, read in 1 M KCl pH 7.; conditions: protein: commercial; label: 5' 6-FAM; stem-loops (mfold prediction)
[2] = target: myoglobin (horse, UniProt P68082 2-154); test: pulse voltammetry biosensor; no significant reactivity; Bead assay: room temperature, 1 h, envelope protein 0.15 mg/mL on magnetic beads, aptamer 3 nM-1 uM, DIW wash; binding buffer not stated (folding predicted at 140 mM Na+, 5 mM Mg2+). Sensor: ACEF 10 min, read in 1 M KCl pH 7.; conditions: protein: commercial; stem-loops (mfold prediction)
Chain of myoglobin (P68082 2-154): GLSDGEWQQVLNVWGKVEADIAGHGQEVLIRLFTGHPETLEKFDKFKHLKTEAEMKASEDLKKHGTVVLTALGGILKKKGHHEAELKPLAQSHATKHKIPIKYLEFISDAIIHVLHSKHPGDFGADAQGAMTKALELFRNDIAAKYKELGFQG

[3] = target: hemoglobin (horse, UniProt P01958;P02062 2-142;1-146); test: as above; conditions: protein: commercial; chain copies: 2;2; stem-loops (mfold prediction)
Chain of hemoglobin (P01958 2-142, chain 1 of 2): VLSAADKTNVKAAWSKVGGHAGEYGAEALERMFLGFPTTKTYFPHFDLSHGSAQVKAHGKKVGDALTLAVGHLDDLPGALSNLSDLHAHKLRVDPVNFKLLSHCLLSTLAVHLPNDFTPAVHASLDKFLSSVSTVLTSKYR
Chain of hemoglobin (P02062 whole entry, chain 2 of 2): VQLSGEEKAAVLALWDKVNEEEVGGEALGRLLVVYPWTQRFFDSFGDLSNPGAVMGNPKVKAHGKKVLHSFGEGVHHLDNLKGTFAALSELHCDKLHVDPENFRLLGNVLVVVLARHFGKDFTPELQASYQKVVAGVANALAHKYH

[4] = target: fibrinogen (UniProt P02671;P02675;P02679 20-629;31-491;27-453); test: as above; conditions: protein: commercial; chain copies: 2;2;2; stem-loops (mfold prediction)
Chain of fibrinogen (P02671 20-629, chain 1 of 3): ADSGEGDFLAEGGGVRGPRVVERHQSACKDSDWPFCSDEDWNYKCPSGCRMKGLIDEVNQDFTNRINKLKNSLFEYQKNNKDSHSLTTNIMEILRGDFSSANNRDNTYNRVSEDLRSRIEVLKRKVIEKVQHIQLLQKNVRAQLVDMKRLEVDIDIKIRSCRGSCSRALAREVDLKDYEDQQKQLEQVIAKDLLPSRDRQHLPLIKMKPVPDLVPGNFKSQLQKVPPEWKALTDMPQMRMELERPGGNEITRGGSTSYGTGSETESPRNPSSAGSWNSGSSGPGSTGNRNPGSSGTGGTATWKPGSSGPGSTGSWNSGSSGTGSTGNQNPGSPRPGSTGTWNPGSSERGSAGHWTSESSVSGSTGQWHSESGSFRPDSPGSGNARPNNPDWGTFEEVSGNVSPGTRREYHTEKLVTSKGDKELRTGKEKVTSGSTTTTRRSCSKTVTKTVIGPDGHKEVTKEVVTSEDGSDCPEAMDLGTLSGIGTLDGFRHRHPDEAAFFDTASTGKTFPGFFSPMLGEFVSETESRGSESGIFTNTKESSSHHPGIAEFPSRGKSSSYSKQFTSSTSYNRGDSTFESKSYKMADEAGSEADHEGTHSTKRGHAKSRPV
Chain of fibrinogen (P02675 31-491, chain 2 of 3): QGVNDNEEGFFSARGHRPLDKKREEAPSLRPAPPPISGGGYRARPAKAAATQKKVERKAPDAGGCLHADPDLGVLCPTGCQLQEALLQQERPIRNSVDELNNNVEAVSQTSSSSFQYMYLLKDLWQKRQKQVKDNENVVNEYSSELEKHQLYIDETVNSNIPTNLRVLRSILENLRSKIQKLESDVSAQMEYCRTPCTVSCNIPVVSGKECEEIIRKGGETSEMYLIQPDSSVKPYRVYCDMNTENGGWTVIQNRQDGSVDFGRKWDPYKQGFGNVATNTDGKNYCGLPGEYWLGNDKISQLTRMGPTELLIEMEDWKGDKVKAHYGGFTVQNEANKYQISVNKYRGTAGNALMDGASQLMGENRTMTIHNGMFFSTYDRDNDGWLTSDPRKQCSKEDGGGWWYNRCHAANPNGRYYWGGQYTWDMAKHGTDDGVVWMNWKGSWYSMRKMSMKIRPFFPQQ
Chain of fibrinogen (P02679 27-453, chain 3 of 3): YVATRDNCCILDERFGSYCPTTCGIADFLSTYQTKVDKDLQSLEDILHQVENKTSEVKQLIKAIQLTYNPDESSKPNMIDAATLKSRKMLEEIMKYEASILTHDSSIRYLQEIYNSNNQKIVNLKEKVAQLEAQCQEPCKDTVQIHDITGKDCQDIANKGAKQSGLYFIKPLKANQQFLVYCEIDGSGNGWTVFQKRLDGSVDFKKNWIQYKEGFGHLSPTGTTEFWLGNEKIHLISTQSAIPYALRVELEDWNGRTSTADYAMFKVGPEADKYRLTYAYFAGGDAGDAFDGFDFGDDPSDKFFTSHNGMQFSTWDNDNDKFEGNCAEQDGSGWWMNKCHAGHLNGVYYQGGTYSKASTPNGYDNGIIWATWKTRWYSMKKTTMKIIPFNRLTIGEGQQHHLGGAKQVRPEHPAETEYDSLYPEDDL

[5] = target: T1, Zika virus envelope protein; test: pulse voltammetry biosensor; ACEF; read in 1 M KCl pH 7; LOD 90.1 pM; Bead assay: room temperature, 1 h, envelope protein 0.15 mg/mL on magnetic beads, aptamer 3 nM-1 uM, DIW wash; binding buffer not stated (folding predicted at 140 mM Na+, 5 mM Mg2+). Sensor: ACEF 10 min, read in 1 M KCl pH 7.; conditions: protein: commercial; stem-loops (mfold prediction)
[6] = target: T1, Zika virus envelope protein; test: EMSA (8% TBE-PAGE); Kd slightly lower than truncated aptamer, value not given; […], aptamer 3 nM-1 uM, […]; binding buffer not stated ([…], read in 1 M KCl pH 7.; conditions: protein: commercial; stem-loops (mfold prediction)

TGCGCACTGAACGATCCTGCGTCAAGTTCAAGGTTGTG (structured_DNA) [truncated Zika aptamer (T-ZV apt), 5'-FAM]
Kd [1]: 333 ± 60.3 nM

TGCGCACTGAACGATCCTGCGTCAAGTTCAAGGTTGTG (structured_DNA, thiol (SH), end not stated) [truncated Zika aptamer (T-ZV apt), thiolated]
binding result [2]: no binding | binding result [3]: no binding | binding result [4]: no binding | binding result [5]: binds

B1: original Zika envelope aptamer (ZV apt) (structured_DNA)
DNA: TGACACCGTACCTGCTCTAGTGCGCACTGAACGATCCTGCGTCAAGTTCAAGGTTGTGAAGCACGCCAAGGGACTAT
binding result [6]: binds
